According to patent publication US20090214662A1 (UNIVERSITY OF MARYLAND BALTIMORE, published 2009):

How the values were obtained:
[1] = target: Lactobacillus brevis ATCC 8287 SlpA surface layer protein (Lactobacillus brevis ATCC 8287) (UniProt Q05044); assay: SPR (BIAcore 3000), SlpA immobilised on CM5 chip, fibronectin injected, 1:1 Langmuir fit
[2] = target: Lactobacillus brevis ATCC 8287 SlpA surface layer protein (Lactobacillus brevis ATCC 8287) (UniProt Q05044); assay: SPR (BIAcore 3000), immobilised SlpA preincubated with 1 mM benzamidine, fibronectin injected, steady-state evaluation
[3] = target: Lactobacillus brevis ATCC 8287 SlpA surface layer protein (Lactobacillus brevis ATCC 8287) (UniProt Q05044); assay: SPR (BIAcore 3000), Kd of laminin compared with Kd of fibronectin on immobilised SlpA
[4] = target: Lactobacillus brevis ATCC 8287 SlpA surface layer protein (Lactobacillus brevis ATCC 8287) (UniProt Q05044); assay: SPR (BIAcore 3000), SlpA immobilised on CM5 chip, collagen injected, 1:1 Langmuir fit
[5] = target: T1, Fibrinogen (human plasma) (human, UniProt P02671 20-629; P02675 31-491; P02679 27-453, limits assumed); assay: SPR (BIAcore 3000), SlpA immobilised on CM5 chip, fibrinogen injected; Table 2 value
T1 construct: mature; Bought from Calbiochem
T1 sequence (looked up) 1: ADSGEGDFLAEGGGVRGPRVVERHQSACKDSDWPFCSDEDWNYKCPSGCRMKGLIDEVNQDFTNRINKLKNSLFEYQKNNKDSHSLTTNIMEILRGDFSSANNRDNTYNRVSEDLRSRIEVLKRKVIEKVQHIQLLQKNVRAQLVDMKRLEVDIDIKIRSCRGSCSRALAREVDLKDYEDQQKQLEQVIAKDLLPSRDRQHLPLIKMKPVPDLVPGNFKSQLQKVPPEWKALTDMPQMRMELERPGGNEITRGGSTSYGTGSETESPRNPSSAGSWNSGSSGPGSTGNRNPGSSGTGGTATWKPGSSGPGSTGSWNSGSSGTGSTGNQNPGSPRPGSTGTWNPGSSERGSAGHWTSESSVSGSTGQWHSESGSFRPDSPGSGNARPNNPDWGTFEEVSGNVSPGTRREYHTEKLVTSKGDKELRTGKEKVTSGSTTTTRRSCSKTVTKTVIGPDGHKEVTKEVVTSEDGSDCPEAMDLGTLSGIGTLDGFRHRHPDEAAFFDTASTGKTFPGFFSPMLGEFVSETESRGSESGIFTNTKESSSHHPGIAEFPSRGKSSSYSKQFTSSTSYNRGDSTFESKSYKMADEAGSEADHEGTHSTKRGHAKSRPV
T1 sequence (looked up) 2: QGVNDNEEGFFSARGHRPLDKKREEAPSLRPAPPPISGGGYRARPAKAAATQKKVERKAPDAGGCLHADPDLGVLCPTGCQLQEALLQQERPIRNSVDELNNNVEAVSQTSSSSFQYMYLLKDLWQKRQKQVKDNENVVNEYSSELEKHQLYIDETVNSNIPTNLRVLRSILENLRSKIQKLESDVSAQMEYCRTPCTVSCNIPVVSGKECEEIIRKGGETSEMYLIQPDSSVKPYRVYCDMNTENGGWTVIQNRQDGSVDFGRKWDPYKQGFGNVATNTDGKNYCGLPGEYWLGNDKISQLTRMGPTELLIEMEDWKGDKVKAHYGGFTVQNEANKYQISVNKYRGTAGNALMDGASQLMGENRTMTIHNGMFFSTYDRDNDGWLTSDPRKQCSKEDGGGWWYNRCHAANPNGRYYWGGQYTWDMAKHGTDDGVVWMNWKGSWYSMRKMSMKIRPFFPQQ
T1 sequence (looked up) 3: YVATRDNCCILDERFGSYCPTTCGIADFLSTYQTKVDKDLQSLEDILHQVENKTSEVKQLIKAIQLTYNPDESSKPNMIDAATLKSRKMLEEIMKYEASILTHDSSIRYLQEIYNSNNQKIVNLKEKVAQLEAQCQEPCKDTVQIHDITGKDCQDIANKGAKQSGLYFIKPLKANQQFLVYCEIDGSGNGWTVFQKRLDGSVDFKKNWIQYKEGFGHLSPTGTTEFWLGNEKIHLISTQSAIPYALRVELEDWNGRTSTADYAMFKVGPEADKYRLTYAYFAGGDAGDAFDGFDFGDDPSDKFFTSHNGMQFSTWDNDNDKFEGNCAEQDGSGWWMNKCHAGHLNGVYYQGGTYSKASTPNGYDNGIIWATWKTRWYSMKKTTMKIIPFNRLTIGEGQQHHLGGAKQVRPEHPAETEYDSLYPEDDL
Procedure: (§1) The interaction between SlpA and extracellular matrix components was evaluated by surface plasmon resonance on a BIAcore 3000 instrument. Purified SlpA protein in 5M LiCl was dialyzed against double-distilled water overnight. Monomeric and/or oligomeric protein was separated from self-assembled material by centrifugation at 20,000×g for 20 min. SlpA protein (50 ug/ml in 10 mM Sodium Phosphate pH 7.4) was covalently coupled to CM5 carboxylated dextran chips using N-hydroxysuccinimide (NHS) chemistry. […] Kinetic analysis was carried out at 25° C. in 10 mM HEPES, 150 mM NaCl, 3 mM EDTA, 0.005% surfactant P20, pH 7.4. […] Binding was determined experimentally by comparing the number of RU's observed as a function of time to an activated and blocked flow cell containing no linked protein. […] Data were evaluated using the BIAevaluation 4.1 software. The association and dissociation data were modeled with the BIAevaluation 4.1 software (Pharmacia Biosensor AB). Following subtraction of data from the control flow cell, the binding data produced for the various protein concentrations were fitted simultaneously, assuming the 1:1 Langmuir model.
(§2) The association and dissociation rate constants were estimated from the binding data at different concentrations using the BIAevaluation software and from these values the binding constant was calculated (Table 2).

[6] = target: T2, Laminin (basement membrane of Engelbreth-Holm-Swarm mouse sarcoma) (mouse, UniProt P19137 25-3083; P02469 22-1786; P02468 34-1607); assay: SPR (BIAcore 3000), SlpA immobilised on CM5 chip, laminin injected, 1:1 Langmuir fit
T2 construct: mature; Bought from Sigma
Procedure: as §1, §2

[7] = target: T2, Laminin (basement membrane of …); assay: SPR (BIAcore 3000), immobilised SlpA preincubated with 1 mM benzamidine, laminin injected, 1:1 Langmuir fit

Molecule “Fibronectin (human plasma) (from UniProt P02751 32-2477)” has a Kd [1] of 0.0898 µM, a koff [1] of 0.00632 s⁻¹ and a Kd [2] of 30.1 µM.

Molecule “Laminin (basement membrane of Engelbreth-Holm-Swarm mouse sarcoma), P19137 25-3083; P02469 22-1786; P02468 34-1607” has a fold higher affinity than for fibronectin [3] of 3 fold.

“Collagen (human placenta Type IV) (from UniProt P02462 28-1440; P08572 26-1484)” was tested, and the Kd [4] was 31.8 µM and the koff [4] was 0.0011 s⁻¹.

B1: Lactobacillus brevis ATCC 8287 SlpA surface layer protein (other, UniProt Q05044 31-465, looked up)
chain: KSYATAGAYSTLKTDAATRNVEATGTNALYTKPGTVKGAKVVASKATMAKLASSKKSADYFRAYGVKTTNRGSVYYRVVTMDGKYRGYVYGGKSDTAFAGGIKSAETTTKADMPARTTGFYLTDTSKNTLWTAPKYTQYKASKVSLYGVAKDTKFTVDQAATKTREGSLYYHVTATNGSGISGWIYAGKGFSTTATGTQVLGGLSTDKSVTATNDNSVKIVYRTTDGTQVGSNTWVTSTDGTKAGSKVSDKAADQTALEAYINANKPSGYTVTNPNAADATYGNTVYATVSQAATSKVALKVSGTPVTTALTTADANDKVAANDTTANGSSVAGSTVYAAGTKLAQLTTDLTGEKGQVVTLTAIDTDLEDATFTGTTTYYSDLGKAYHYTYTYNKDSAASSNASTQFGSNVTGTLTATLVMGKSTATANGTTWFN
notes: mature; Native protein purified from the bacterium; The soluble monomeric and/or oligomeric fraction after dialysis and centrifugation was covalently coupled (NHS chemistry) to a CM5 chip, about 1700 RU; also called S-layer protein; Surface Layer Protein A
In the case of B1, the Kd [5] is reported as 26.1 µM, the Kd [6] is reported as 0.0267 µM and the koff [6] is reported as 0.0013 s⁻¹. For the same molecule, the Kd [7] was 0.066 µM and the koff [7] was 0.002 s⁻¹.
